Reference: article PMC9569133 (Biochemistry, 2021)

Biological target: the molecule itself
Experiment: native MS

B1: Kir3.2, full-length, human (natural protein, UniProt P48051 1-423, looked up)
chain: MAKLTESMTNVLEGDSMDQDVESPVAIHQPKLPKQARDDLPRHISRDRTKRKIQRYVRKDGKCNVHHGNVRETYRYLTDIFTTLVDLKWRFNLLIFVMVYTVTWLFFGMIWWLIAYIRGDMDHIEDPSWTPCVTNLNGFVSAFLFSIETETTIGYGYRVITDKCPEGIILLLIQSVLGSIVNAFMVGCMFVKISQPKKRAETLVFSTHAVISMRDGKLCLMFRVGDLRNSHIVEASIRAKLIKSKQTSEGEFIPLNQTDINVGYYTGDDRLFLVSPLIISHEINQQSPFWEISKAQLPKEELEIVVILEGMVEATGMTCQARSSYITSEILWGYRFTPVLTLEDGFYEVDYNSFHETYETSTPSLSAKELAELASRAELPLSWSVSSKLNQHAELETEEEEKNLEEQTERNGDVANLENESKV
**Q.** Which “stoichiometry N” value does the source give for B1 here?
**A.** 4
